The source of these data is PMC3308894.

Values joined by “and” are separate entries in the source; they are usually repeats but may differ in a detail not shown here. Equal values may be shown once.

Assay in all cases: other fluorescence titration
For test [1], the target named is 147-bp nucleosome, which contains no linker DNA (Nuc147) (Xenopus laevis).
The target in test [2] is 207-bp linker DNA-containing nucleosome (Nuc207) (Xenopus laevis).
Test [3] addresses an individual nucleosome, whether mono or as part of an array.
For test [4], the target named is histone H2A-H2B complex, fluorescently labeled (Xenopus laevis) (UniProt P06897).
The target in test [5] is tail-less histone H2A-H2B complex, fluorescently labeled (Xenopus laevis) (UniProt P06897).
The target of test [6] is tri-nucleosome array LE (linker-ended), 621-bp DNA (Xenopus laevis).
The target of test [7] is tri-nucleosome array NLE (nonlinker-ended), 561-bp DNA (Xenopus laevis).
In test [8] the target is histone H3-H4 complex, fluorescently labeled (Xenopus laevis) (UniProt P84233).

As usually defined, the Kd is the concentration at which binding is half-saturated. A low value points to tighter binding. Consider “FACT (facilitates chromatin transcription) complex, full-length, de-phosphorylated (from UniProt Q9Y5B9;Q08945)”, for which the Kd in test [1] worked out at 64 nM; in test [2], 22 nM; in test [4], 31 nM; in test [6], 26 nM; in test [7], 36 nM. For the same substance, the stoichiometry N (FACT molecules per nucleosome) in test [3] is 1 and 2. Besides, the fold lower affinity than for tail-containing H2A-H2B in test [5] came to 7 fold. Further, the results for the stoichiometry N (FACT:tri-nucleosome) in test [6] and in test [7] were 3.3 and 2.4, respectively.
With “FACTΔCTD (Spt16 acidic C-terminal domain truncation + SSRP1) (from UniProt Q9Y5B9;Q08945) (complex)”, in test [2], the fold less affinity than FACT came out at 20 fold and the fold less affinity than SSRP1 alone is 7 fold. In test [4], this substance came in with a fold increase of Kd(app) against full-length FACT of 6 fold. The Kd in test [8] was above 1000 nM.
For “SSRP1 (structure-specific recognition protein 1) subunit of FACT (from UniProt Q08945 1-709) (natural protein)”, the Kd in test [1] was above 1000 nM; in test [2], 67 nM.
Substance “Spt16 (Suppressor of ty 16) subunit of FACT (from UniProt Q9Y5B9 1-1047) (natural protein)” showed a Kd in test [4] of 85 nM.
